The subject of the assay is MEFs. The experiment in a line: Stimulation of serum-starved MEFs with growth factors or serum (Ezh2, Ndy1, miR-101 levels). It is filed as cell-based, mouse. To be noted: serum-starved MEFs, 24 hours after stimulation. How it is done:
MEFs were transfected with control siRNA and stimulated with serum (10%) for 1, 4, 12 and 18 hours. (upper) Nuclear extracts were probed with antibody specific for Ezh2 and for CREB, levels of which served as loading control. (lower) Ndy1 and Ezh2 mRNA levels were measured with real time RT-PCR; GAPDH mRNA levels were used as internal control. Data are expressed as mean±SD.
Serum starved MEFs were stimulated with each of FGF-2 (20 ng/ml), IGF-1 (20 ng/ml), PDGF (20 ng/ml), serum (10%), VEGF (20 ng/ml), EGF (20 ng/ml) or TNFα (50 ng/ml). Nuclear extracts were probed with antibody specific for Ezh2 and for CREB, levels of which served as loading control.
Data are expressed as mean±SD.
MEFs transfected with control siRNA were stimulated with FGF-2 for 1, 4, 12 or 18 hours. (upper) Nuclear extracts were probed with antibody specific for Ezh2. CREB levels served as loading control. (middle) Ndy1 and Ezh2 mRNA were measured with real time RT-PCR; GAPDH mRNA levels were used as internal control. Data are expressed as mean±SD. (lower) miR-101 levels were measured with real time RT-PCR; U6 small nuclear RNA levels were used as internal control. Data are expressed as mean±SD. […]

B1: EGF: growth factor, R&D systems (protein, UniProt P01133 23-1207, looked up)
Pro-epidermal growth factor: PQHWSCPEGTLAGNGNSTCVGPAPFLIFSHGNSIFRIDTEGTNYEQLVVDAGVSVIMDFHYNEKRIYWVDLERQLLQRVFLNGSRQERVCNIEKNVSGMAINWINEEVIWSNQQEGIITVTDMKGNNSHILLSALKYPANVAVDPVERFIFWSSEVAGSLYRADLDGVGVKALLETSEKITAVSLDVLDKRLFWIQYNREGSNSLICSCDYDGGSVHISKHPTQHNLFAMSLFGDRIFYSTWKMKTIWIANKHTGKDMVRINLHSSFVPLGELKVVHPLAQPKAEDDTWEPEQKLCKLRKGNCSSTVCGQDLQSHLCMCAEGYALSRDRKYCEDVNECAFWNHGCTLGCKNTPGSYYCTCPVGFVLLPDGKRCHQLVSCPRNVSECSHDCVLTSEGPLCFCPEGSVLERDGKTCSGCSSPDNGGCSQLCVPLSPVSWECDCFPGYDLQLDEKSCAASGPQPFLLFANSQDIRHMHFDGTDYGTLLSQQMGMVYALDHDPVENKIYFAHTALKWIERANMDGSQRERLIEEGVDVPEGLAVDWIGRRFYWTDRGKSLIGRSDLNGKRSKIITKENISQPRGIAVHPMAKRLFWTDTGINPRIESSSLQGLGRLVIASSDLIWPSGITIDFLTDKLYWCDAKQSVIEMANLDGSKRRRLTQNDVGHPFAVAVFEDYVWFSDWAMPSVMRVNKRTGKDRVRLQGSMLKPSSLVVVHPLAKPGADPCLYQNGGCEHICKKRLGTAWCSCREGFMKASDGKTCLALDGHQLLAGGEVDLKNQVTPLDILSKTRVSEDNITESQHMLVAEIMVSDQDDCAPVGCSMYARCISEGEDATCQCLKGFAGDGKLCSDIDECEMGVPVCPPASSKCINTEGGYVCRCSEGYQGDGIHCLDIDECQLGEHSCGENASCTNTEGGYTCMCAGRLSEPGLICPDSTPPPHLREDDHHYSVRNSDSECPLSHDGYCLHDGVCMYIEALDKYACNCVVGYIGERCQYRDLKWWELRHAGHGQQQKVIVVAVCVVVLVMLLLLSLWGAHYYRTQKLLSKNPKNPYEESSRDVRSRRPADTEDGMSSCPQPWFVVIKEHQDLKNGGQPVAGEDGQAADGSMQPTSWRQEPQLCGMGTEQGCWIPVSSDKGSCPQVMERSFHMPSYGTQTLEGGVEKPHSLLSANPLWQQRALDPPHQMELTQ
modifications: Pro-epidermal growth factor
notes: growth factor, R&D systems
Take B1: the “level at which Ezh2 expression is induced” value is “at both the RNA and protein levels”. Besides, under “20 ng/ml (serum 10%)”, the Ezh2 expression entry was “significantly upregulated”.

(Values after US20110008302A1, “Compositions and methods for immortalizing cells and screening for anti-cancer agents” (priority 2007, published 2011).)
